According to patent USRE38313:

Experiments:
[1] = target: human MHC Class II molecules expressed on cells (human); test: flow cytometry on Daudi cells preincubated with the competitor soluble CHO/LAG-3D1D2, GAH-FITC detection
[2] = target: human MHC Class II molecules expressed on cells (human); test: flow cytometry on Daudi cells, GAH-FITC detection, no preincubation
[3] = target: human MHC Class II molecules expressed on cells (human); test: cell-based or functional assay
[4] = target: human MHC Class II molecules expressed on cells (human); test: competition by flow cytometry on Daudi cells; soluble CHO/LAG-3D1D2 first, then dimeric LAG-3D1D4Ig
[5] = target: human MHC Class II molecules expressed on cells (human); test: competition by flow cytometry on Daudi cells; soluble CHO/LAG-3D1D2 first, then monomeric LAG-3D1D2Ig

Mean Fluorescence [1]	Mean Fluorescence [2]	inhibition of the proliferation of clone T154 preincubated with cross-linked LAG-3Ig [3] [%]	percent inhibition of the binding of dimeric LAG-3D1D4Ig [4] [%]	percent inhibition of the binding of monomeric LAG-3D1D2Ig [5] [%]	Substance
8.5	20.8	> 50	–	–	LAG-3 D1-D4 Ig (from UniProt P01857 99-330) (Fc fusion)
–	62.5	–	–	–	LAG-3 D1D2 Ig (from UniProt P01857 99-330) (Fc fusion)
–	–	–	58	27	soluble LAG-3 D1D2 fragment produced by CHO cells (receptor)
